Earlier results in publication PMC3686494.

Target: AgCad1 (cadherin) CR9-11 (Anopheles gambiae)
Assay: one-site saturation binding

Cry4Ba (from UniProt P05519)
Kd: 0.013 µM
